Results published in US20220347267A1, “METHODS TO IMPROVE PATIENT RESPONSE TO IMMUNE CHECKPOINT INHIBITORS AND FUNCTIONAL TESTS TO PREDICT RESPONSE” (Biomarker Strategies, LLC, priority 2019, published 2022).

Legend:
[1] = test system: H1650 cells; experiment: PD-L1 immunocytochemistry (ICC), IFNγ modulation; assay type: cell-based; conditions: H1650 (NSCLC); 10 ng/mL human IFNγ, 24h; anti-PD-L1 clone E1L3N
Experimental: The human NSCLC cell line SKMES1 was grown in Eagle's Minimum Essential Medium (EMEM; ATCC #30-2003) with 10% Fetal Bovine Serum (FBS) and 1% Penicillin and Streptomycin (P/S). The human NSCLC H460, H1299 and H292 and melanoma cell lines MeWo, HMVII, A375 and CHL1 were grown in RPMI1640 medium with 10% FBS and 1% P/S and 1% sodium pyruvate. Cultured cells were harvested using Accutase, and the cell count and viability were determined using trypan blue dye exclusion. Other methods to collect cells, including scraping or other release can be used.
Between 15,000 to 20,000 cells were put into each chamber of 8-chambered ICC slides in 200 uL medium with or without 10 ng/mL human IFNγ. […] IFNγ can be readily replaced by other modulators discussed within. […] Cell lines can be readily switched for other sources of cells, including those isolated from xenografts or clinical samples and can be processed manually or using automated methods (e.g. on SnapPath).
Cells on the chambered slides were stained entirely at RT using the BioGenex RTU Detection System kit components (QD400) unless otherwise indicated. Other detection reagents and methods (e.g. multiplex immunocytochemistry, single of multiplex immunofluorescence, confocal, etc.), including automated staining methods, can be used readily. […] Ki67, T-EGFR or vimentin are provided as examples of positive controls, but others can be readily used. […]

[2] = test system: H1299 cells; experiment: PD-L1 mRNA one step RT-qPCR, IFNγ treatment; assay type: cell-based, human; conditions: 10 ng/mL IFNγ for 24h, 2^-ΔΔCt normalized by GAPDH
Experimental: (§1) Additionally, the presence, abundance and ratio of different PD-L1 mRNA forms can be used to predict response. As way of example, PD-L1 mRNA were measured using primers amplifying within exon 3-4 (extracellular region of the transcribed protein that interacts with PD1). Other amplicons detecting the same or other forms can be used readily. For example, amplicons corresponding to the transmembrane and cytoplasmic tail to confirm full length plasma membrane bound protein is transcribed, or regions overlapping with either PD1 or anti-PD-L1 binding sites. Five cell lines (H460, H1299, H1650, H2126 and SKMES1) were treated with vehicle or 10 ng/mL IFNγ for 24h. More complex sample types, including cells isolated from solid tumors from preclinical and clinical cancers be used. Other time points, including those as early as 1h for IRF or 4h for PD-L1, can be readily used. RNA was isolated from the cells using an NEB kit (Cat #T2010) per the manufacturer's instructions. Isolated RNA was estimated using a NanoDrop […] and checked for its quality by checking the 260/280 ratio. RNA concentration was brought to 40 ng/uL in all the samples to take equal quantity for further steps of RT and real time PCR. One step RT-qPCR was performed using a Power SYBR Green RNA to Ct One step kit (Cat #4931198) as per the manufacturer's instructions. A 200 ng RNA template was taken for total 20 uL reaction per well in 96 well PCR microplate for Roche 480 Light cycler. The following primer pairs (Sigma) were used for PD-L1 and GAPDH and were used at a concentration in the reaction mixture of 400 nM:
(§2) A Roche 480 Light cycler was used for performing the one step real time PCR. Data was analyzed using 2^-ΔΔCt method normalized by GAPDH for relative levels. Alternative housekeeper genes may be readily used.

[3] = test system: H1650 cells; experiment: PD-L1 mRNA one step RT-qPCR, IFNγ treatment; assay type: cell-based, human; conditions: 10 ng/mL IFNγ for 24h, 2^-ΔΔCt normalized by GAPDH
Experimental: as §1, §2

[4] = test system: H2126 cells; experiment: PD-L1 mRNA one step RT-qPCR, IFNγ treatment; assay type: cell-based, human; conditions: 10 ng/mL IFNγ for 24h, normalized by GAPDH
Experimental: as §1, §2

[5] = test system: SKMES1 cells; experiment: PD-L1 mRNA one step RT-qPCR, IFNγ treatment; assay type: cell-based, human; conditions: 10 ng/mL IFNγ for 24h, normalized by GAPDH
Experimental: as §1, §2

[6] = test system: H460 cells; experiment: PD-L1 mRNA one step RT-qPCR, IFNγ treatment; assay type: cell-based, human; conditions: 10 ng/mL IFNγ for 24h, normalized by GAPDH
Experimental: as §1, §2

B1: IFNγ: human IFNγ, modulator (10 ng/ml; Sigma Aldrich) (protein, UniProt P01579 24-161, looked up)
Interferon gamma: QDPYVKEAENLKKYFNAGHSDVADNGTLFLGILKNWKEESDRKIMQSQIVSFYFKLFKNFKDDQSIQKSVETIKEDMNVKFFNSNKKKRDDFEKLTNYSVTDLNVQRKAIHELIQVMAELSPAAKTGKRKRSQMLFRG
Which results are given for B1?
Immunocytochemical Score, PD-L1, IFNγ-Treated Cells [1]: Negative; relative increase of PD-L1 mRNA upon IFNγ exposure [2]: 1.7 fold; relative increase of PD-L1 mRNA upon IFNγ exposure [3]: 2.2 fold; change of PD-L1 mRNA upon IFNγ exposure [4]: decrease; change of PD-L1 mRNA upon IFNγ exposure [5]: no change; change of PD-L1 mRNA upon IFNγ exposure [6]: decrease
